This is an account of results in US20120301469A1 (Ablynx, published 2012).

The target of experiment [1] is T1, hRSV FTM-NN (membrane anchorless form of the Long fusion protein, 70 kDa) (human respiratory syncytial virus, …, UniProt P12568 26-524).
T1 construct: also called FTM-NN (Long); hRSV FTM-protein
Description: competition ELISA on FTM-NN, competitor Synagis Mab, purified Nanobody.

Experiment [2] has as its target T2, protein F of hRSV strain B-1 (on RSV B-1-infected Hep2 cells and on virus) (human respiratory syncytial virus, …, UniProt P13843 26-574). Description: cell-based or functional assay.
Experiment [3] has as its target T2, protein F of hRSV strain B-1 (on RSV …). Description: cell ELISA on RSV B-1-infected Hep2 cells, periplasmic extract 1:50.
The target in experiment [4] is T1, hRSV FTM-NN (membrane anchorless form …). Description: ELISA on immobilized FTM-NN, periplasmic extract 1:10.
Experiment [5] concerns the target T3, protein F of hRSV strain Long, on virus (inactivated hRSV Long, Hytest #8RSV79; RSV Long LM-2, ATCC VR-26) (human respiratory syncytial virus, …, UniProt P12568 26-574). Description: cell-based or functional assay.
For experiment [6], the target named is T2, protein F of hRSV strain B-1 (on RSV …). Description: cell-based or functional assay. This is another data set of the same source.
For experiment [7] the target is unchanged. Description: cell ELISA on RSV B-1-infected Hep2 cells, periplasmic extract 1:200.
Experiment [8] deals with T3, protein F of hRSV strain Long, on virus …. Description: cell-based or functional assay. The source holds these as a separate data set.
For experiment [9], the target named is T1, hRSV FTM-NN (membrane anchorless form …). Description: SPR (Biacore), FTM-NN amine-coupled on CM5 chip, 1:1 Langmuir fit.

A value given as a limit tells only on which side of the number the result lay.

B1: Nanobody 1G3 (VHH)
VHH: EVQLVESGGGLVQAGGSLRLSCEASGRTYSRYGMGWFRQAPGKEREFVAAVSRLSGPRTVYADSVKGRFTISRDNAENTVYLQMNSLKPEDTAVYTCAAELTNRNSGAYYYAWAYDYWGQGTQVTVSS
notes: also called PMP1G3; PRSV1G3
In turn, B1 yielded an IC50 in [1] of 72.5 nM. The “micro-neutralization of RSV B-1” value in experiment [2] was more than 10 µM. For the same molecule, the “Binding Hep2-B-1 (% control) 1:50 PE” value in experiment [3] turned out to be 52 % control. Also, the “Binding Long 1:10 PE (Fold blanc)” value in experiment [4] came out at 3.4 fold blanc. Further, the “Neutralization Long IC50” value in experiment [5] is 413 nM. Moreover, in experiment [6], the “Neutralization B-1 IC50” value was more than 10000 nM. Also, the “Binding Hep2-B-1 (% control) 1:200 PE” value in experiment [7] is 45 % control.

B2: Nanobody 7B2 (VHH)
VHH: EVQLVESGGGLVQAGDSLRLSCAASGRTFSSYAMGWFRQAPGKEREFVAAISWSDGSTYYADSVKGRFTISRDNAKNTVYLQMNSLKPEDTAVYYCAADLTSTNPGSYIYIWAYDYWGQGTQVTVSS
notes: also called PMP7B2; PRSV7B2
The molecule B2 registered an IC50 in [1] of 1.93 nM. Besides, in experiment [8], the “RSV micro-neutralization on Long, IC50” value amounted to 88 nM. The “micro-neutralization of RSV B-1” value in experiment [2] was more than 10 µM. Moreover, the “Binding Hep2-B-1 (% control) 1:50 PE” value in experiment [3] came out at 61 % control. Further, in experiment [4], the “Binding Long 1:10 PE (Fold blanc)” value was 4.7 fold blanc. Besides, in experiment [5], the “Neutralization Long IC50” value was 108 nM. For the same molecule, the “Neutralization B-1 IC50” value in experiment [6] was more than 10000 nM. The “Binding Hep2-B-1 (% control) 1:200 PE” value in [7] was 41 % control. Further, in experiment [9], binding was characterised by a dissociation constant (Kd) of 1.5 nM, the koff worked out at 0.00049 s⁻¹ and the kon was determined as 340000 M⁻¹ s⁻¹.

B3: Nanobody NC41 (VHH)
VHH: EVQLVESGGGLVQAGGSLSISCAASGGSLSNYVLGWFRQAPGKEREFVAAINWRGDITIGPPNVEGRFTISRDNAKNTGYLQMNSLAPDDTAVYYCGAGTPLNPGAYIYDWSYDYWGRGTQVTVSS
As to B3, in experiment [1], the IC50 came to 416 nM. The “micro-neutralization of RSV B-1” value in experiment [2] is more than 10 µM. Besides, the “Neutralization Long IC50” value in [5] amounted to 221 nM. In [9], the Kd was found to be 8.1 nM, the koff was 0.0067 s⁻¹ and the kon amounted to 820000 M⁻¹ s⁻¹.

B4: Nanobody 19C4 (VHH)
VHH: EVQLVESGGGLVQAGGSLRLSCAASGRSFSNYVLGWFRQAPGKEREFVAAISFRGDSAIGAPSVEGRFTISRDNAKNTGYLQMNSLVPDDTAVYYCGAGTPLNPGAYIYDWSYDYWGRGTQVTVSS
notes: also called PMP19C4; PRSV19C4
In turn, B4 gave an IC50 in [1] of 209 nM. The “micro-neutralization of RSV B-1” value in experiment [2] was more than 10 µM. Besides, the “Binding Hep2-B-1 (% control) 1:50 PE” value in experiment [3] was 72 % control. For the same molecule, in [4], the “Binding Long 1:10 PE (Fold blanc)” value turned out to be 2.5 fold blanc. In experiment [5], the “Neutralization Long IC50” value was 332 nM. The “Neutralization B-1 IC50” value in experiment [6] is more than 10000 nM. For the same molecule, the “Binding Hep2-B-1 (% control) 1:200 PE” value in experiment [7] came out at 50 % control.
